Reference: patent US20140256786
Read-outs that look alike come from different tables or passages of the source.

Columns and labels:
[1] = system: GST-dMiroΔTM fusion protein (amino acids 1-634 of the full-length dMiro protein, transmembrane domain deleted) [GST: P08515]
[2] = target: GST-dMiroΔTM fusion protein (amino acids 1-634 of the full-length dMiro protein, transmembrane domain deleted) [GST: P08515]; remark: listed apart in the source

## mammalian PINK1 protein affinity purified from HEK293 cells by immunoprecipitation
[1]
  in vitro kinase assay: also failed to phosphorylate GST-dMiroΔTM in these assays

B1: Drosophila PINK1 protein affinity purified from HEK293 cells by immunoprecipitation (protein)
chain: MSVRLLTVRLIKHGRYILRSYCKRDIHANILDQNQLKTRSKRGFPLPSTAANVLRTTPQQAAKSVVNVVPRTINSPSGSPFNGSGSSPTSSSGIFRVGQHARKLFIDNILSRVTTTYSEDLRQRATRKLFFGDSAPFFALIGVSLASGSGVLSKEDELEGVCWEIREAASRLQNAWNHDEISDTLDSKFTIDDLEIGPPIAKGCAAVVYAADFKKDVASDGASLHTDAQPQATPAFAPNSWSTHEMMSPLQNMSRFVHNFGGSVDNVFHYSQPSAASDFVGAQSREQDQRHHEQQQHQNQEQEQHQNQEPSSSAFNVTSPANSNINSSVDSYPLALKMMFNYDIQSNALSILRAMYKETVPARQRGMNEAADEWERLLQNQTVHLPRHPNIVCMFGFFCDEVRNFPDGHLLYPVAQPQRINPQGYGRNMSLYLLMKRYDHSLRGLLDSQDLSTRNRILLLAQMLEAVNHLSRHGVAHRDLKSDNVLIELQDDAAPVLVLSDFGCCLADKVHGLRLPYVSHDVDKGGNAALMAPEIFNTMPGPFAVLNYGKADLWACGALAYEIFGNRNPFYSSSGGMARERGEMTLSLRNSDYRQDQLPPMSDACPPLLQQLVYNILNPNPSKRVSPDIAANVVQLFLWAPSNWLKAGGMPNSPEILQWLLSLTTKIMCEGRPQMGAGLMPVASCGNRRAYVEYLLICSFLARARLRRIRGALNWIQNVVA
[2]
  in vitro kinase assay: also failed to phosphorylate GST-dMiroΔTM in these assays

B2: 2xGST-dPINK1 fusion protein with GST fused at both the N- and C-terminus of dPINK1 (protein)
chain: KEDELEGVCWEIREAASRLQNAWNHDEISDTLDSKFTIDDLEIGPPIAKGCAAVVYAADFKKDVASDGASLHTDAQPQATPAFAPNSWSTHEMMSPLQNMSRFVHNFGGSVDNVFHYSQPSAASDFVGAQSREQDQRHHEQQQHQNQEQEQHQNQEPSSSAFNVTSPANSNINSSVDSYPLALKMMFNYDIQSNALSILRAMYKETVPARQRGMNEAADEWERLLQNQTVHLPRHPNIVCMFGFFCDEVRNFPDGHLLYPVAQPQRINPQGYGRNMSLYLLMKRYDHSLRGLLDSQDLSTRNRILLLAQMLEAVNHLSRHGVAHRDLKSDNVLIELQDDAAPVLVLSDFGCCLADKVHGLRLPYVSHDVDKGGNAALMAPEIFNTMPGPFAVLNYGKADLWACGALAYEIFGNRNPFYSSSGGMARERGEMTLSLRNSDYRQDQLPPMSDACPPLLQQLVYNILNPNPSKRVSPDIAANVVQLFLWAPSNWLKAGGMPNSPEILQWLLSLTTKIMCEGRPQMGAGLMPVASCGNRRAYVEYLLICSFLARARLRRIRGALNWIQNVVA
[2]
  in vitro kinase assay (P32 autoradiography): failed to show phosphorylation of GST-dMiroΔTM
